13 molecules from patent US7521053 (dated 2009) can be followed below.

Test [1] concerns the target T1, mAng-2 (mouse, UniProt O35608).
T1 chain: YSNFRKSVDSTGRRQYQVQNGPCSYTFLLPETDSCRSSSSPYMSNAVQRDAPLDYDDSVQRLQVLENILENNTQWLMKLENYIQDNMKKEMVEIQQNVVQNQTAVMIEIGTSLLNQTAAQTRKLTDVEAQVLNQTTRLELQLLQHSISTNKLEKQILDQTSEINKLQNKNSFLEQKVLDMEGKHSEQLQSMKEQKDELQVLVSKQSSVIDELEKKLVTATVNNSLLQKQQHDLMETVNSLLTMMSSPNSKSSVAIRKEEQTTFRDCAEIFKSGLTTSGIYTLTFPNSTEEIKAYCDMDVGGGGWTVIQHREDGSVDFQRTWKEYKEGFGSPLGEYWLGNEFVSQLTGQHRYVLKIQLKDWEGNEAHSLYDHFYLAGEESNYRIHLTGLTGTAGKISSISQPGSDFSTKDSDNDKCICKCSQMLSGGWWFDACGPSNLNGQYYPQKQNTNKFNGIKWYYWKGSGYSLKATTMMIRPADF
Briefly: competition ELISA (Tie2-Fc).

Test [2] addresses T2, hAng-2 (human, UniProt O15123).
T2 chain: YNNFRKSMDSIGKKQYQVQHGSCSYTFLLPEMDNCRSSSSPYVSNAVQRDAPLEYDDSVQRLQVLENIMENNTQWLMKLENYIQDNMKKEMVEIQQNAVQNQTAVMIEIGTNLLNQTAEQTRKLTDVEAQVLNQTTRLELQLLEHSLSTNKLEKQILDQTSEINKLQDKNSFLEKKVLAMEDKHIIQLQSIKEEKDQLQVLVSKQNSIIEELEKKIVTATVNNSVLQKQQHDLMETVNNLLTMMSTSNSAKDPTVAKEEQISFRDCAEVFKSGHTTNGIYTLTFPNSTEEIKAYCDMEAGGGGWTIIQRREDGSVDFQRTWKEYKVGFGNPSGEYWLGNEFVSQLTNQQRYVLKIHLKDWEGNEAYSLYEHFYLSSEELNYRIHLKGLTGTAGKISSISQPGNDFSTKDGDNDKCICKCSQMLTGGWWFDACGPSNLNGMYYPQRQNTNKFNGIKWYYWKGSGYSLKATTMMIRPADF
The test is described as follows: competition ELISA (Tie2-Fc).

Test [3] addresses T3, hAng-1 (human, UniProt Q15389).
T3 chain: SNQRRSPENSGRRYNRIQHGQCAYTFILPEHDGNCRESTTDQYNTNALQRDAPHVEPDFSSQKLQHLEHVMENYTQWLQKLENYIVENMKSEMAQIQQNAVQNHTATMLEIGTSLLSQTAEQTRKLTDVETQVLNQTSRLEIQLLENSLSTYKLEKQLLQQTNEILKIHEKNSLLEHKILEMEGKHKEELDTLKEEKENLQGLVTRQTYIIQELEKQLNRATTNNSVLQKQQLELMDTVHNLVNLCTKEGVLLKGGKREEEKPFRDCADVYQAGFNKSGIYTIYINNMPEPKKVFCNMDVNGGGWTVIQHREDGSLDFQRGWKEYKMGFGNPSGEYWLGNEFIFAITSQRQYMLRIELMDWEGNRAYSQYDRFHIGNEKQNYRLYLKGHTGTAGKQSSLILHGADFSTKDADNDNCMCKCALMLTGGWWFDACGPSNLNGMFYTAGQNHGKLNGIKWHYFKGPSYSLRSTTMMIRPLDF
Briefly: competition ELISA (no inhibition).

Test [4] concerns the target T3, hAng-1. Briefly: competition ELISA (Tie2-Fc).

B1: Ab 533 (antibody, V domains shown)
VH: EVQLVQSGGGVVQPGRSLRLSCAASGFTFSSYGMHWVRQAPGKGLEWVSYISSSGSTIYYADSVKGRFTISRDNAKNSLYLQMNSLRAEDTAVYYCARDLLDYDILTGYGYWGQGTLVTVSS
VL: SYELTQPPSVSVSPGQTARITCSGDALPKQYAYWYQQKPGQAPVLVIYKDSERPSGIPERFSGSSSGTTVTLTISGVQAEDEADYYCQSADSSHVVFGGGTKLTVL
For the molecule B1, the IC50 in test [1] came out at 0.08 nM; in test [2] it was 0.3 nM. Besides, the binding result in test [3] was “no binding”.

B2: Ab 528 (antibody, V domains shown)
VH: QVQLVQSGAEVKKPGSSVKVSCKASGGTFSSYAISWVRQAPGQGLEWMGGIIPIFGTANYAQKFQGRVTITADESTSTAYMELSSLRSEDTAVYYCARGVVGDFDWLSFFDYWGQGTLVTVSS
VL: SYELTQPPSVSVSPGQTASITCSGDKLGYTYTSWFQQKPGQSPVLVIFQDFKRPSGIPERFSGSNSGNTATLTISGTQAMDEADYYCQAWDSTTAVVFGTGTKVTVL
In the case of B2, in test [3], the binding result is recorded as “no binding”.

B3: Ab 555 (antibody, V domains shown)
VH: QVQLQESGGGVVQPGRSLRLSCAASGFTFSSYAMHWVRQAPGKGLEWVAVISYDGSNKYYADSVKGRFTISRDNSKNTLYLQMNSLRAEDTAVYYCARSASDHYYDSSGYYSDAFDIWGQGTMVTVSS
VL: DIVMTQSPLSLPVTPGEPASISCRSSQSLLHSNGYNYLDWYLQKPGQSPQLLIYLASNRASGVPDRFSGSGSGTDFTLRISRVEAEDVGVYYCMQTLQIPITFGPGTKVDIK
For the molecule B3, the binding result in test [3] is “no binding”.

B4: Ab 540 (antibody, V domains shown)
VH: QVQLVQSGAEVKKPGSSVKVSCKASGGTFSSYAISWVRQAPGQGLEWMGGIIPILGIANYAQKFQGRVTITADKFTSTAYMELSSLGSEDTAVYYCARAVPGTEDAFDIWGQGTMVTVSS
VL: QSVLTQPPSVSAAPGQKVTISCSGSSSNIGANYVSWYQQLPGTAPKLLIYNNNKRPSGIPDRFSGSKSDTSATLGITGLQTGDEADYYCGAWDSSLSASWVFGGGTKLTVL
Regarding B4, in test [3], the binding result is reported as “no binding”.

B5: Ab 531 (antibody, V domains shown)
VH: EVQLVQSGAEVKKPGSSVKVSCKASGGTFSSYAISWVRQAPGQGLEWMGGIIPILGIANYAQKFQGRVTITADKSTNTAYMELTSLTSDDTAVYYCARDREDTAMVFNYWGQGTLVTVSS
VL: QSVLTQPPSVSAAPGQKVTVSCSGSSSNIGNNYVSWYQQLPGTAPKLLIYDNNKRPSGIPDRFSGSKSGTSATLGITGLQTGDEADYYCGTWDSSLSAFWVFGGGTKLTVL
As to B5, the binding result in test [3] is “no binding”.

B6: Ab 544 (antibody, V domains shown)
VH: QVQLVQSGAEVKKPGASVKVSCKASGGTFSSYAISWVRQAPGQGLEWMGGIIPIFGTANYAQKFQGRVTITADESTSTAYMELSSLRSEDTAVYYCARFESGYWGDAFDIWGQGTMVTVSS
VL: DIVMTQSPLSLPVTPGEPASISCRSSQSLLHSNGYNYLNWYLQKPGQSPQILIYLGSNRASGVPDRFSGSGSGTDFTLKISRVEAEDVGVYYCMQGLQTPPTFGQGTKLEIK
B6: the half-inhibitory concentration (IC50) was 1.82 nM in test [1], 0.97 nM in test [2] and 23.3 nM in test [4].

B7: Ab 535 (antibody, V domains shown)
VH: QVQLVQSGAEVKKPGSSVKVSCKASGGTFSSYAISWVRQAPGQGLEWMGGIIPIFGTANYAQKFQGRVTITADKSTSTAYMELSSLRSEDTAVYYCAAFSPFTETDAFDIWGQGTMVTVSS
VL: QSVLTQPPSVSAAPGQKVTISCSGSNSNIGNNFVSWYQQLPGTAPKLLVYDNNKRPSGIPDRFSGSKSGTSATLGITGLQTGDEADYYCGTWDSSLSAAEVVFGGGTKLTVL
For B7, the binding result in test [3] is given as “no binding”.

B8: Ab 543 (antibody, V domains shown)
VH: QVQLVQSGAEVKKPGSSVKVSCKASGGTFSSYAISWVRQAPGQGLEWMGRIIPILGIANYAQKFQGRVTITADKSTSTAYMELSSLRSEDTAVYYCARPYYDFWSGPGGMDVWGQGTTVTVSS
VL: not shown
On to B8, for which the binding result in test [3] was “no binding”.

B9: Ab 551 (antibody, V domains shown)
VH: QVQLVQSGAEVKKPGSSVKVSCKASGGTFSSYAISWVRQAPGQGLEWMGGIIPIFGTANYAQKFQGRVTITADESTSTAYMELSSLRSEDTAVYYCARGYDFWSGYSLDAFDIWGQGTMVTVSS
VL: not shown
For B9, the binding result in test [3] is recorded as “no binding”.

B10: Ab 546 (antibody, V domains shown)
VH: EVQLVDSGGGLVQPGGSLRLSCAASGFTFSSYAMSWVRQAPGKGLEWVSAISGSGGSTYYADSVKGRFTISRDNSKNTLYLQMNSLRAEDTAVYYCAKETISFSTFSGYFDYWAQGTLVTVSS
VL: QSVLTQPSSVSEAPRQRVTISCSGSASNIGANGVSWYHQVPGKAPRLLLSHDGLVTSGVPDRLSVSKSGTSASLAISGLHSDDEGDYYCAVWDDSLNAVVFGGGTKLTVL
For B10, the IC50 in test [1] was 1.09 nM; in test [2] it was 0.37 nM. The binding result in test [3] is listed as “no binding”.

B11: Ab 553 (antibody, V domains shown)
VH: QVQLVQSGAEVKKPGASVKVSCKASGYTFTSYAMHWVRQAPGQRLEWMGWINAGNGNTKYSQKFQGRVTITRDTSASTAYMELSGLRSEDTAVYYCARGVDDYGGNSWAFDIWGQGTMVTVSS
VL: DIVMTQSPLSLPVTPGEPASISCRSSQSLLHSNGYNYLDWYLQKPGQSPQLLIYLGSNRASGVPDRFTGSGSATDFTLRISRVEAEDVGVYYCMQALQTPLTFGGGTKVEIK
Regarding B11, the binding result in test [3] was “no binding”.

B12: Ab 565 (antibody, V domains shown)
VH: QVQLVQSGAEVKKPGSSVKVSCKASGGTFSSYAISWVRQAPGQGLEWMGGIIPIFGTANYAQKFQGRVTITADESTSTAYMELSSLRSEDTAVYYCARSPIYYDILTGIDAFDIWGQGTMVTVSS
VL: EIVLTQSPGTLSLSPGERATLSCRASQSVSSSSLAWYQQKPGQAPRLLVYAASSRATGIPDRFSGSGSGTDFTLTISRLEPEDFAVYYCQHYGSSPRTFGQGTKVEIK
In the case of B12, the IC50 in test [1] and in test [2] was 0.26 nM in each case. In addition, the binding result in test [3] is listed as “no binding”.

B13: Ab 537 (antibody, V domains shown)
VH: QVQLVQSGAEVKKPGSSVKVSCKASGGTFSSYAISWVRQAPGQGLEWMGGIIPILGIANYAQKFQGRVTITADKSTSTAYMELSGLGSEDTAVYYCARGSSDAAVAGMWGQGTLVTVSS
VL: QSVLTQPPSVSAAPGQDVTISCSGNNSNIGNNYVSWYQQVPGTAPKLLVYDNHKRPSGISDRFSGSKSDTSATLDITGLQPGDEADYYCGTWDTSLSANWVFGGGTKLTVL
For the molecule B13, the binding result in test [3] is listed as “no binding”.
